Source: patent US20260263646A1 (ENLAZA THERAPEUTICS, published 2026)
Changes are numbered by the printed parent chain. Names and notes keep the numbering of the source. Read-outs that look alike come from different tables or passages of the source. [ ]: non-standard residue; d: D form. Tyr(SO2F) = N[C@@H](Cc1ccc(OS(=O)(=O)F)cc1)C(=O)O

How the values were obtained:
PSMA on LNCaP cells [1] = target: T1, PSMA on LNCaP cells (human, UniProt Q04609 1-750); assay: western blot, LNCaP cells, 100.0 nM, 1 h
T1 construct: whole, on cells; also called LNCaP (PSMA+)
T1 sequence (Q04609 whole entry): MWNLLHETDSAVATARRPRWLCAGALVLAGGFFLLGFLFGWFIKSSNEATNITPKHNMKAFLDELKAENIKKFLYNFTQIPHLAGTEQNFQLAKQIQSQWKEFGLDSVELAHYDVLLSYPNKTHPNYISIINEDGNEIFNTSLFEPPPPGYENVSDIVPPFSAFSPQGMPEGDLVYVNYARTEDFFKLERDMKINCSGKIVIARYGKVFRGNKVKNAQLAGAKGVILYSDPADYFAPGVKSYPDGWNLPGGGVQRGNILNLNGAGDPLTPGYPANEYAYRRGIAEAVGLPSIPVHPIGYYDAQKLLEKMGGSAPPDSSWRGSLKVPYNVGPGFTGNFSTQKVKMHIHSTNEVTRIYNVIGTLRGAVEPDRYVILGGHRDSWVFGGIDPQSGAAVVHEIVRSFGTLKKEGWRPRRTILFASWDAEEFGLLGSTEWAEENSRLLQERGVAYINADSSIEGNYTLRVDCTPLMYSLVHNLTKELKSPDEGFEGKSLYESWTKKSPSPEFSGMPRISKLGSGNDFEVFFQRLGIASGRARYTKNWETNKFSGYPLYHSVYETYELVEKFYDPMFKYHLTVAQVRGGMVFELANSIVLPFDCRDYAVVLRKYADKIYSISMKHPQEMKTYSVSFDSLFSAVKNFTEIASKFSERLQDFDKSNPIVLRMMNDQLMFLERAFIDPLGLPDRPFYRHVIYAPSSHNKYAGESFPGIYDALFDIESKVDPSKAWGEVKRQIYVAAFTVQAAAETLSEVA

PSMA on LNCaP cells [2] = target: T1, PSMA on LNCaP cells; assay: western blot, LNCaP cells, 100.0 nM, 6 h
PSMA on LNCaP cells [3] = target: T1, PSMA on LNCaP cells; assay: western blot, LNCaP cells, 0.1 nM, 1 h
PSMA on LNCaP cells [4] = target: T1, PSMA on LNCaP cells; assay: western blot, LNCaP cells, 1000.0 nM, 1 h
PSMA on LNCaP cells [5] = target: T1, PSMA on LNCaP cells; assay: western blot, LNCaP cells, 1.0 nM, 6 h
PSMA on LNCaP cells [6] = target: T1, PSMA on LNCaP cells; assay: western blot, LNCaP cells, 1000.0 nM, 6 h
PSMA on LNCaP cells [7] = target: T1, PSMA on LNCaP cells; assay: western blot, LNCaP cells, 1.0 nM, 1 h
PSMA on LNCaP cells [8] = target: T1, PSMA on LNCaP cells; assay: western blot, LNCaP cells, 10.0 nM, 1 h
PSMA on LNCaP cells [9] = target: T1, PSMA on LNCaP cells; assay: western blot, LNCaP cells, 0.1 nM, 6 h
PSMA on LNCaP cells [10] = target: T1, PSMA on LNCaP cells; assay: western blot, LNCaP cells, 10.0 nM, 6 h
[11] = target: T2, PSMA (commercial, Sino Bio cat #15877-H07H) (UniProt Q04609 44-750); assay: SDS-PAGE time course, 37C
T2 construct: also called receptor
T2 sequence (Q04609 44-750 limits assumed): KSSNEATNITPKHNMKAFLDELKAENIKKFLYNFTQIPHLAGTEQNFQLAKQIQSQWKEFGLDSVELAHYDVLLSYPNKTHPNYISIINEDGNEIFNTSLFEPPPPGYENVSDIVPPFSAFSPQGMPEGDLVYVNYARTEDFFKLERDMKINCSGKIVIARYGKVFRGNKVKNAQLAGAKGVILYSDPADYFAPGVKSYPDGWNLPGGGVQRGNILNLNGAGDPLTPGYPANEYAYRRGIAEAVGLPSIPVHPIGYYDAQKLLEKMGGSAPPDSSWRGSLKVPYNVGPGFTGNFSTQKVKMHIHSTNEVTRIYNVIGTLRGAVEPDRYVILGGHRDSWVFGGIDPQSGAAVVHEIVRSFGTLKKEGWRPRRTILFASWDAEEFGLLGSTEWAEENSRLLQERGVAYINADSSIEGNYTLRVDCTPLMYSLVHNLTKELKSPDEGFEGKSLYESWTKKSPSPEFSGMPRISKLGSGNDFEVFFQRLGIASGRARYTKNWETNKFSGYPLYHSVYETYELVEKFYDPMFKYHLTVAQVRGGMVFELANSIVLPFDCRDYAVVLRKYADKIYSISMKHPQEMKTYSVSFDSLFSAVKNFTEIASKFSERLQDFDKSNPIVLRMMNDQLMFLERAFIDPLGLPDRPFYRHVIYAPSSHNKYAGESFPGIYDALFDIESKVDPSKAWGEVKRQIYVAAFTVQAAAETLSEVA

PSMA on PC3pip cells [12] = target: T3, PSMA on PC3pip cells (UniProt Q04609 1-750, limits assumed); assay: cell-based or functional assay
T3 sequence (Q04609 whole entry): as the sequence (Q04609 whole entry) above

PSMA on PC3pip cells [13] = target: T3, PSMA on PC3pip cells; assay: cell-based or functional assay; remark: listed apart in the source
[14] = target: T4, PSMA with a Fc tag (Acrobiosystem PSA-H5264) (UniProt Q04609 44-750); assay: biolayer interferometry, PSMA-Fc on AHC sensor
T4 construct: Printed 'Fe tag'; captured on AHC sensors; also called PSMA with a Fe tag
T4 sequence (Q04609 44-750 limits assumed): as the sequence (Q04609 44-750 limits assumed) above

PSMA on LNCaP cells [15] = target: T1, PSMA on LNCaP cells; assay: flow cytometry on LNCaP cells
PSMA on LNCaP cells [16] = target: T1, PSMA on LNCaP cells; assay: flow cytometry on LNCaP cells; remark: listed apart in the source
[17] = target: T5, Fc-tagged Her2 (Acrobiosystem #HER2-H5253) (UniProt P04626 23-652); assay: SDS-PAGE time course
T5 construct: also called Her2-Fc; FcHer2

HER2 on BT-474 cells [18] = target: T6, HER2 on BT-474 cells (human, UniProt P04626 23-1255); assay: flow cytometry on BT-474 cells, pH 6.0
T6 construct: whole, on cells

HER2 on BT-474 cells [19] = target: T6, HER2 on BT-474 cells; assay: cell-based or functional assay

B1: C34-FSY (bispecific antibody)
chain: EVQLVESGGGLVQPGGSLTLSCAASRFMISEYSMHWVRQAPGKGLEWVSTINPYGTTDYAESVKGRFTISRDNAKNTLYLQMNSLKPEDTAVYYCDGYGYRGQGTQVTVSSGGGGSGGGGSGGGGSQVQLQESGGGSVEAGGSLRLSCARSGWPYSTYSMNWFRQAPGKEREAVAGISSTMSGIIFAESKAGQFTISQDNAKNTVYLQMNNLKPEDTAIYYCAARRXFSLSSSSDDFDYWGQGTQVTVSSAAAYPYDVPDYGSLPETGGSPSTPPTPSPSTPP
modifications: FSY at the X of the entry (101 of the C24 part)
notes: Biparatopic tandem of two anti-PSMA VHH
PSMA on LNCaP cells [1]
  Crosslinked PSMA (Total PSMA %): 63.3%
PSMA on LNCaP cells [2]
  Crosslinked PSMA (Total PSMA %): 87.1%
PSMA on LNCaP cells [3]
  Crosslinked PSMA (Total PSMA %): 0%
PSMA on LNCaP cells [4]
  Crosslinked PSMA (Total PSMA %): 70.4%
PSMA on LNCaP cells [5]
  Crosslinked PSMA (Total PSMA %): 21.5%
PSMA on LNCaP cells [6]
  Crosslinked PSMA (Total PSMA %): 89.9%
PSMA on LNCaP cells [7]
  Crosslinked PSMA (Total PSMA %): 14.8%
PSMA on LNCaP cells [8]
  Crosslinked PSMA (Total PSMA %): 56.9%
PSMA on LNCaP cells [9]
  Crosslinked PSMA (Total PSMA %): 3.2%
PSMA on LNCaP cells [10]
  Crosslinked PSMA (Total PSMA %): 78.7%

B2: C40-102FSY (bispecific antibody)
chain: QVQLQESGGGSVQAGGSLRLSCTAPGYTDSNYYMSWFRQAPGKEREWVAGVNTGRGSTSYADSVKGRFTISQDNAKNTMFLQMNSLKPEDTAIYYCAVAAAXFADSLPKTQDEYILWGQGTQVTVSSAAAYPYDVPDYGSGGGGSGGGGSQVQLQESGGGSVQAGGSLRLSCTAPGYTDSNYYMSWFRQAPGKEREWVAGVNTGRGSTSYADSVKGRFTISQDNAKNTMFLQMNSLKPEDTAIYYCAVAAAHFADSLPKTQDEYILWGQGTQVTVSSAAAYPYDVPDYGSHHHHHH
modifications: FSY at 102 of the first sdAb
notes: also called C40-FSY; C1-C101A/C104A/H102(FSY)-L1-C1-C39
[11]
  fold crosslinking rate against C39-102FSY: 2 fold
  t1/2 maximum crosslinking: ~30 min

B3: C26-54FSY (VHH)
VHH: EVQLVESGGGLVQPGGSLTLSCAASRFMISEYSMHWVRQAPGKGLEWVSTINPXGTTDYAESVKGRFTISRDNAKNTLYLQMNSLKPEDTAVYYCDGYGYRGQGTQVTVSS
modifications: FSY at 54 (X of the entry); MC-PEG8-VC-PABC-MMAE on the C-terminal Cys
PSMA on PC3pip cells [12]
  IC50 PC3pip (M), cell viability by CellTiter-Glo after 4 days: 9.39e-10 M
PSMA on PC3pip cells [13]
  fold potency against C26-54TYR: 3.57 fold

B4: C2-54TYR (VHH)
VHH: B3 VHH with X54Y
notes: C2 sdAb with tyrosine at position 54; also called C2-TYR
[14]
  Kd: 9.1 nM
PSMA on LNCaP cells [15]
  EC50: 6.75 nM

B5: C2-54FSY (VHH)
VHH: B3 VHH
modifications: FSY at 54
notes: also called C2-A54(FSY); C2-FSY
PSMA on LNCaP cells [16]
  EC50: 12.2 nM
[14]
  Kd: 10.9 nM

B6: C39-102FSY (VHH)
VHH: QVQLQESGGGSVQAGGSLRLSCTAPGYTDSNYYMSWFRQAPGKEREWVAGVNTGRGSTSYADSVKGRFTISQDNAKNTMFLQMNSLKPEDTAIYYCAVAAAXFADSLPKTQDEYILWGQGTQVTVSS
modifications: FSY at 102 (X of the entry)
notes: pelB leader cleaved off; also called C1-C101A/C104A/H102(FSY); C39-FSY C1
[11]
  t1/2 maximum crosslinking: ~60 min

B7: C38-FSY (designed binder)
chain: MDLGKKLLEAARAGQDDEVRILMANGADVNAHDFYGITPLHLAANFGHLEIVEVLLKHGADVNAF[Tyr(SO2F)]YDNTPLHLAADAGHLEIVEVLLKYGADVNASDRDGHTPLHLAAREGHLEIVEVLLKNGADVNAQDKFGKTAFDISIDNGNEDLAEILQKLGGGGSRSDLGKKLLEAARAGQDDEVRILMANGADVNAKDEYGLTPLYLATAHGHLEIVEVLLKNGADVNAVDAIGFTPLHLAAFIGHLEIAEVLLKHGADVNAQDKFGKTAFDISIGNGNEDLAEILQKLNGS
notes: also called C15-66FSY-C16; biparatopic DARPin
[17]
  crosslinking: 50%

B8: C36-FSY (bispecific antibody)
chain: QVQLQESGGGSVEAGGSLRLSCARSGWPYSTYSMNWFRQAPGKEREAVAGISSTMSGIIFAESKAGQFTISQDNAKNTVYLQMNNLKPEDTAIYYCAARRXFSLSSSSDDFDYWGQGTQVTVSSGGGGSGGGGSGGGGSQVQLQESGGGSVEAGGSLRLSCARSGWPYSTYSMNWFRQAPGKEREAVAGISSTMSGIIFAESKAGQFTISQDNAKNTVYLQMNNLKPEDTAIYYCAARRXFSLSSSSDDFDYWGQGTQVTVSSAAAYPYDVPDYGSLPETGGSPSTPPTPSPSTPP
modifications: FSY at both X of the entry (101 of each C24 part)
notes: Tandem of two copies of the same VHH
PSMA on LNCaP cells [1]
  Crosslinked PSMA (Total PSMA %): 82.7%
PSMA on LNCaP cells [2]
  Crosslinked PSMA (Total PSMA %): 87.9%
PSMA on LNCaP cells [3]
  Crosslinked PSMA (Total PSMA %): 3.8%
PSMA on LNCaP cells [4]
  Crosslinked PSMA (Total PSMA %): 90.3%
PSMA on LNCaP cells [5]
  Crosslinked PSMA (Total PSMA %): 23.7%
PSMA on LNCaP cells [6]
  Crosslinked PSMA (Total PSMA %): 92%
PSMA on LNCaP cells [7]
  Crosslinked PSMA (Total PSMA %): 13.8%
PSMA on LNCaP cells [8]
  Crosslinked PSMA (Total PSMA %): 58.7%
PSMA on LNCaP cells [9]
  Crosslinked PSMA (Total PSMA %): 2.8%
PSMA on LNCaP cells [10]
  Crosslinked PSMA (Total PSMA %): 74.2%

B9: C28-101FSY (VHH)
VHH: QVQLQESGGGSVEAGGSLRLSCARSGWPYSTYSMNWFRQAPGKEREAVAGISSTMSGIIFAESKAGQFTISQDNAKNTVYLQMNNLKPEDTAIYYCAARRXFSLSSSSDDFDYWGQGTQVTVSS
modifications: FSY at 101 (X of the entry); MC-PEG8-VC-PABC-MMAE on the C-terminal Cys
PSMA on PC3pip cells [12]
  IC50 PC3pip (M), cell viability by CellTiter-Glo after 4 days: 1.8e-10 M
PSMA on PC3pip cells [13]
  fold potency against C28-101TYR: > 400 fold

B10: C24-101FSY (VHH)
VHH: B9 VHH
modifications: FSY at 101 (X of the entry)
notes: also called C24-FSY
PSMA on LNCaP cells [1]
  Crosslinked PSMA (Total PSMA %): 28.5%
PSMA on LNCaP cells [2]
  Crosslinked PSMA (Total PSMA %): 71%
PSMA on LNCaP cells [3]
  Crosslinked PSMA (Total PSMA %): 0%
PSMA on LNCaP cells [4]
  Crosslinked PSMA (Total PSMA %): 41.4%
PSMA on LNCaP cells [5]
  Crosslinked PSMA (Total PSMA %): 2.4%
PSMA on LNCaP cells [6]
  Crosslinked PSMA (Total PSMA %): 75.8%
PSMA on LNCaP cells [7]
  Crosslinked PSMA (Total PSMA %): 0%
PSMA on LNCaP cells [8]
  Crosslinked PSMA (Total PSMA %): 4.6%
PSMA on LNCaP cells [9]
  Crosslinked PSMA (Total PSMA %): 0%
PSMA on LNCaP cells [10]
  Crosslinked PSMA (Total PSMA %): 28.4%

B11: C33-54TYR (VHH)
VHH: QVQLQESGGGSVQAGGSLKLTCAASGYIFNSCGMGWYRQSPGRERELVSRISGYGDTWHKESVKGRFTISQDNVKKTLYLQMNSLKPEDTAVYFCAVCYNLETYWGQGTQVTVSS
modifications: PEG8-vc-PABC-MMAE on the C-terminal GGG
HER2 on BT-474 cells [18]
  EC50: 2.5 nM
HER2 on BT-474 cells [19]
  IC50 (nM) - 5 h, BT474 viability after 5 h washout: 21.6 nM
  IC50 (nM) - 6 days, BT474 viability, continuous exposure: 0.328 nM

B12: C33-52TYR (VHH)
VHH: B11 VHH with S52Y, Y54D
modifications: PEG8-vc-PABC-MMAE on the C-terminal GGG, by sortase ligation
HER2 on BT-474 cells [18]
  EC50: 160 nM
HER2 on BT-474 cells [19]
  IC50 (nM) - 5 h, BT474 viability after 5 h washout: > 100 nM
  IC50 (nM) - 6 days, BT474 viability, continuous exposure: 8.42 nM
